Experimental data taken from paper doi:10.1101/2023.10.05.560930 (bioRxiv, 2023).
Where no end group is shown, it is not given here. Cy5 = Cy5 fluorophore

Tests used:
Assay in all cases: fluorescence polarisation
LC3A(1-120) = LC3A(1-120) (human, UniProt Q9H492 1-120)
LC3B(1-120) = LC3B(1-120) (human, UniProt Q9GZQ8 1-120)
LC3C(1-126) = LC3C(1-126) (human, UniProt Q9BXW4 1-126)
GABARAP(1-116) = GABARAP(1-116) (human, UniProt O95166 1-116)
[…]1(1-117) = […]1(1-117) (human, UniProt Q9H0R8 1-117)
[…]2(1-117) = […]2(1-117) (human, UniProt P60520 1-117)

Measured: binding result

SDNSSGGDDDWTHLSSK-Cy5 [p62-LIR peptide linked to a Cy5 fluorophore]
binds: LC3A(1-120) | LC3B(1-120) | LC3C(1-126) | GABARAP(1-116) | […]1(1-117) | […]2(1-117)
